B1: HEEH_KT_rd6_0007 (parent)
chain: SIEEEIKKAEEAKEKGKTFIHGDFVATTEELLDELLKRLRKKL
B2: EHEE_rd2_0191 (parent)
chain: TTEYTFTDDEEARRAIEELKKRGLTFRYEKHGTTWRVRVD

Variants of: B1
Assay: folding stability dG (cDNA display proteolysis); higher = more stable
Settings: PBS, room temperature

Folding stability dG [kcal/mol] of substitutions, site by site:
L36: D -0.448, I 1.62, R 0.531, Q 0.304, H 0.249, W 0.856, G 0.032, M 0.68, P -0.108, E -0.06, V 0.838, K -0.007, S 0.185, T 0.179, Y 0.652, F 0.757, A 0.394, N 0.046
K37: R 1.68, C 2.06, E 1.25, T 1.26, Y 0.938, H 1.07, S 1.21, L 1.51, A 1.5, M 1.4, I 1.15, F 0.924, G 0.864, Q 1.37, V 1.05, P -0.465, W 0.832, D 0.975, N 1.17
K41: R 1.54, L 1.42, D 1.1, P 0.057, M 1.38, H 1.15, G 0.924, N 1.11, I 1.2, A 1.57, V 1.07, Y 0.949, Q 1.41, T 1.04, S 1.12, W 1.08, F 0.949, E 1.19
L35: P -0.141, K 0.309, M 0.714, A 0.494, Y 0.817, N 0.287, F 0.799, S 0.043, Q 0.486, E 0.313, T 0.38, V 0.702, H 0.458, W 0.882, R 0.542, D 0.12, G 0.119, I 1.15
K42: M 1.74, I 1.59, F 1.38, N 0.7, V 1.23, G 0.621, A 1.42, W 1.83, P 0.483, T 1.19, E 1.23, D 0.935, H 1.1, Y 1.5, S 1.13, R 1.34, L 1.82, Q 1.42
L39: I 0.845, E -0.449, N 0.087, K 0.102, G -0.429, F 0.806, Y 0.697, R 0.516, P -0.251, V 0.079, W 0.902, M 0.977, H 0.059, S 0.093, T -0.05, A 0.168, Q -0.059
E34: Y 1.4, D 0.87, G 0.737, N 0.881, H 1.02, V 0.952, L 1.4, K 1.11, S 0.84, A 1.19, R 1.2, T 1.02, M 1.3, I 1.36, F 1.4, Q 1.17, C 1.64, W 1.86, P 0.383
L32: S 0.285, Y 1.22, W 0.894, Q 0.13, I 1.46, H 0.393, C 0.637, E 0.247, D 0.374, M 0.752, G 0.372, T 0.441, V 0.661, F 1.59, N 0.294, P 0.168, K 0.345, A 0.414, R 0.281
R40: C 1.31, P -0.336, G 0.155, E -0.182, Y 1.69, H 0.662, Q 0.495, S 0.38, N 0.359, T 0.465, D -0.199, A 0.53, I 0.776, K 0.773, V 0.699, W 1.23, F 1.1, M 0.877, L 1.02
E30: W 1.42, Y 1.15, Q 1.14, R 1.19, N 0.882, P 0.673, V 0.976, T 1.09, S 1.12
L43: P 0.431, T 0.533, F 1.05, Y 0.992, W 1.06, V 0.562, M 0.858, C 1.31, G 0.444, E 0.224, S 0.524, K 0.822, A 0.591, D 0.207, N 0.566, I 0.768, R 1.14, H 0.788, Q 0.837
R38: H 1.6, S 0.842, T 1.15, I 1.73, M 1.9, G 0.522, K 1.02, L 1.94, Q 1.23, Y 2.01, N 0.87, A 1.37, W 2, V 1.37, D 0.493, E 0.927, P -0.239, F 1.83
L31: A 1.28, T 0.882, H 1.08, F 0.877, N 0.715, E 2, D 1.52, P 0.452, R 0.535, V 0.71, G 0.74, M 1.65, Y 0.721, I 0.938, S 0.841, W 0.95, K 0.756, Q 1.75
D33: A 1.22, C 1.98, K 1.23, I 1.35, W 1.44, H 1.04, N 1.27, S 1.04, R 1.37, G 0.853, L 1.23, E 1.34, T 1.1, M 1.17, Y 1.28, P -0.325, V 1.17, F 1.32, Q 0.991

Variants of: B2
Assay: as above
Settings: PBS, room temperature

Folding stability dG [kcal/mol]: each site, then its substitutions
T2: V 2.4, Q 2, N 1.58, F 2.33, P 0.931, L 2.3, S 1.68, Y 2.41, A 1.82, I 2.5, C 2.9, E 1.76, W 2.62, R 2.27, M 2.2, H 2.08, G 1.42, D 1.35, K 2.01
T5: L 2.25, D 0.819, E 1.79, I 2.71, K 1.3, F 2.51, Q 1.64, A 1.23, H 1.67, R 1.64, N 1.36, M 1.95, C 2.33, G 0.086
E3: L 2.25, W 3.02, T 2.31, P 0.266, D 1.58, Y 2.62, M 2.14, S 1.55, R 1.12, H 1.73, F 2.44, I 2.52, C 2.81, V 2.56, G 0.724, N 1.39, K 0.77, A 1.12, Q 1.47
T1: P 2.15, S 2.05, H 2.1, Y 2.93, R 1.87, V 2.44, Q 2.04, K 1.78, W 3.2, M 2.21, E 1.93, G 1.95, F 2.69, I 2.44, L 2, D 1.75, N 1.62, A 2.06
Y4: M 1.79, S 0.036, L 1.93, F 1.99, W 2.22, K 0.122, V 0.805, Q 0.601, H 0.788, A 0.059, C 2.79, E -0.036, T 0.315, I 1.44, N -0.571, R 0.382
